From article PMC8632965 (2021)

T1: caveolin-1 protein (UniProt Q03135 1-178)
T1 chain: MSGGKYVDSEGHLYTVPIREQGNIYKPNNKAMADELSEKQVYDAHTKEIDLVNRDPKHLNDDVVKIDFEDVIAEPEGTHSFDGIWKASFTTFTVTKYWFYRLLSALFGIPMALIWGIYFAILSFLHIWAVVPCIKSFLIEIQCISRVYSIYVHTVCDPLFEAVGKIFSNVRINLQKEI

B1: extracellular portion of CD98 (212-630 of CD98hc) (domain or fragment)
chain: ELPAQKWWHTGALYRIGDLQAFQGHGAGNLAGLKGRLDYLSSLKVKGLVLGPIHKNQKDDVAQTDLLQIDPNFGSKEDFDSLLQSAKKKSIRVILDLTPNYRGENSWFSTQVDTVATKVKDALEFWLQAGVDGFQVRDIENLKDASSFLAEWQNITKGFSEDRLLIAGTNSSDLQQILSLLESNKDLLLTSSYLSDSGSTGEHTKSLVTQYLNATGNRWCSWSLSQARLLTSFLPAQLLRLYQLMLFTLPGTPVFSYGDEIGLDAAALPGQPMEAPVMLWDESSFPDIPGAVSANMTVKGQSEDPGSLLSLFRRLSDQRSKERSLLHGDFHAFSAGPGLFSYIRHWDQNERFLVVLNFGDVGLSAGLQASDLPASASLPAKADLLLSTQPGREEGSPLELERLKLEPHEGLLLRFPYAA

Key:
caveolin-1 protein [1] = biological target: T1, caveolin-1 protein; test: SPR
[2] = biological target: B1; test: SPR
caveolin-1 protein [3] = biological target: T1, caveolin-1 protein; test: SPR; in the presence of 5A12 antibody
[4] = biological target: domain 1 of CD147 with the K63A mutation (human, UniProt P35613-2 22-205, K63A); test: SPR

Row | Kd (caveolin-1 protein [1]) [nM] | Kd [2] [nM] | Kd (caveolin-1 protein [3]) [nM] | Kd [4] [nM] | Binder
1 | 35.7 | 818 | 14.9 | – | extracellular portion of CD147 (ECD), amino acids 22–205 (domain or fragment) AAGTVFTTVEDLGSKILLTCSLNDSATEVTGHRWLKGGVVLKEDALPGQKTEFKVDSDDQWGEYSCVFLPEPMGTANIQLHGPPRVKAVKSSEHINEGETAMLVCKSESVPPVTDWAWYKITDSEDKALMNGSESRFFVSSSQGRSELHIENLNMEADPGQYRCNGTSSKGSDQAIITLRVRSH
2 | – | – | – | 7490 | B1
